According to patent US20250152732A1:
Each block holds one substance with its values, some of them ahead of it.

Target: target ligand expressed on MutuDC1940 cells
Experiment: cell-based or functional assay

- relative expression level of the Firefly luciferase gene against general lipid nanoparticles, MutuDC1940 cells, 10% FBS, LP ratio 5,000:1 to 100,000:1: 5 to 20 times
- relative expression level of the Firefly luciferase gene against general lipid nanoparticles, MutuDC1940 cells, no serum, LP ratio 5,000:1 to 10,000:1: 5 to 20 times
Substance: antibody-bound lipid nanoparticle carrying a fragment of the NLDC145 antibody conjugated with the membrane scaffold protein MSP1E3D1 (scFv)

- relative expression level of the Firefly luciferase gene against general lipid nanoparticles, MutuDC1940 cells, 10% FBS, LP ratio 1,000:1 to 100,000:1: 5 to 20 times
- relative expression level of the Firefly luciferase gene against general lipid nanoparticles, MutuDC1940 cells, no serum, LP ratio 500:1 to 10,000:1: 5 to 20 times
Substance: antibody-bound lipid nanoparticle carrying a fragment of the NLDC145 antibody conjugated with the membrane scaffold protein ApoA1 (scFv)

- relative expression level of the Firefly luciferase gene against general lipid nanoparticles, MutuDC1940 cells, 10% FBS, LP ratio 500:1 to 100,000:1: 5 to 20 times
- relative expression level of the Firefly luciferase gene against general lipid nanoparticles, MutuDC1940 cells, no serum, LP ratio 500:1 to 1,000:1: 5 to 20 times
Substance: antibody-bound lipid nanoparticle carrying a fragment of the NLDC145 antibody conjugated with the membrane scaffold protein ApoE3 (scFv)
